This note sets out measurements from the nanobody polyreactivity screen of Harvey et al. (2022).

The nature of the data set: yeast display, Sf9 membrane polyspecificity reagent, FACS + sequencing; frameworks hold sequencing errors. In short, it runs like this: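 Polyreactivity labels are assigned by the sorting gate from which each nanobody was recovered. The gates were low and high (top ~1%), set on anti-HA fluorescence for expression and streptavidin fluorescence for reagent binding. Before sorting, galactose-induced (36–48 hours) yeast display cells were stained for 1 hour at 4 °C with 10% biotinylated, detergent-solubilized Sf9 membrane reagent.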
As to “QVQLVESGGGLVQAGGSLRLSCAASGSIFFVYAMGWYRQAPGKERELVAGIRWSGGRTSYADSVKGRFTISRDNAKNTVYLQMNSLNPEDTAVYYCAADPRSYFTSEYWGQGTQVTVSS”, the “polyreactivity (PSR sort gate)” value is listed as “high polyreactivity”.

For the sequence “QVQLGESGGGLVQAGGSLRLRCAASGSTFEFYAMGWYRQAPGKERELVASITSSSGPTYYADSVKGRFTISRDNAKNTVYLQMNSLKPEDTAVFYCAKRPIRYYHLLRGNYWGQGTQVTVSS”, the “polyreactivity (PSR sort gate)” value is reported as “low polyreactivity”.

“QVQLVESGGGLVQAGVSLRLSCAASGITFPYYTMGCYRQAPGKERELVAAITSGGSTNYADSVKGRFTISRDNAKNTVYLQMNSLKPEDTAVYYCDGVLWLFDYWGQGTQVTVSS”: the “polyreactivity (PSR sort gate)” value was “high polyreactivity”.

As to “QVQLVESGGGLVQAGGSLRLSCAASGLTFWYYAMGRYRHAPRKERELVATITWSGRTYYADSVKGRFTISRDNAKNTVYLQMNSLKTEDTAVYYCNAVKGRLQYSYDYWGQGTQVTVSS”, the “polyreactivity (PSR sort gate)” value is given as “high polyreactivity”.

As to “QVQLVESGGGLVQAGGSLRLSCADSGITFVTYAMGWYRQAPGKERELVAAISRSGGRTYYADYVKGRFTISRENAKNTVYLQMNSLKPEDTAVYYCAAERKNKYDYWVQGTQVTVSS”, the “polyreactivity (PSR sort gate)” value is given as “high polyreactivity”.

On to “QVQLVESGGGLVQAGGSLRLSCADSGSIGYYAMGWYRQAPGKERELVAVISRSGTGTYYADSVKGRFTISRDNANNTVYLQMNSLKPEDTAVYYCNAETYTYRYENDYWGQGTQVTVSS”, for which the “polyreactivity (PSR sort gate)” value was “high polyreactivity”.

Take “QVQLVESGGGLFQAGRSLRLICAASGRIFNQYPMGWSRQAPGKETELVAAIRRSSDSTYYADSVKGRFTISRDNAKNTVYLQMNSLTPEDSAVYYCATDGYRRWVWMEYWGQGTQVTVSS”: the “polyreactivity (PSR sort gate)” value is reported as “low polyreactivity”.

In the case of “QVQLVESGGGLVQAGGSLRLSCAASGSSFPYNTMGWYRQAPGKERELVAAISSGASTNYADSVKGRFTISRDNAKNTVYLQMNSLKPEDTAVYYCAAKYNANWDFDYWGQGTQVTVSS”, the “polyreactivity (PSR sort gate)” value is listed as “low polyreactivity”.

Take “QVQLVETGGGLVQAGGSLRLSCAASGIIFGGYDRGWYRQAPGKERELVAAISWSGGSTYYAASVKGRFTISRDNAKNTVYLEMNSLKPEDTAVYYCAAAYYAPTRDYYYWGQGTQVTVSS”: the “polyreactivity (PSR sort gate)” value is reported as “low polyreactivity”.

Turning to “QVQIVESGGGLVQAGGSLRLSCAASGSTSYRYAMGWYRQATGQERALVAAIPWISDSTYYADSVKGRFTISRDNAKNTVYLQMNSLKPEDTAVYYCNTDPLVTSVTFNYWGQGTQVTVSS”, the “polyreactivity (PSR sort gate)” value was “low polyreactivity”.

For “QVQLVESGGGLVQAGGSLRISCAASGFIFKVYAMGWYRQAPGKERELVAAITSSGGSTYYADSVKGRFTISRDNAKNTVYLQMNSLIPEDTAVYYCAAQFPGVYYYIYDYWGQGTQVTVSS”, the “polyreactivity (PSR sort gate)” value was “high polyreactivity”.

Consider “QVQLVESGGGLVQAGGSLRLSCAASGITFGQYAMGWYRQAPGKERELVAVITSGGDTYYADSVKGRFTISRDNAKNTVYLQINSLKPEDTAVYYCNADDDLTSIYRYDYWGQGTQVTVSS”, for which the “polyreactivity (PSR sort gate)” value was “low polyreactivity”.

As to “QVQLVESGGGLVQAGGSLRLSCAASGFIVTPYTMGWYRQAAGKERELVAAITDGSSTYYADSVKGRFTISRDNAKNTDYLQMNSLKPEETAVYYFNADGKPPYISWLYDYWGHGTQVTVSS”, the “polyreactivity (PSR sort gate)” value is listed as “low polyreactivity”.

As to “QVQLVESGGGLVQAGGSLRLSCAASGSTFEFYAMGWYRQAPGKERELVASITSSSGPTYYADSVKGRFTISRDNAKNTVYLQMNSLKPEDTAVYYCAKRPIRYYHLLRGNYWGQGTQVTVSS”, the “polyreactivity (PSR sort gate)” value is on record as “low polyreactivity”.

In the case of “QVELVESGGGLVQAGGSLRLSCAASGLTCVSYAMGWYRQAPGKERELVAAISRSGGSTYYADSVKGRFTISRDNAKNTVYLQMNSLKPVDTAVYYGNAYSYVDFCAVYRYDYWGQGTQLTVSS”, the “polyreactivity (PSR sort gate)” value is recorded as “high polyreactivity”.

As to “QVQLVESGGGLVQAGGSLRLSCAASGRIFYYNAMGWYRPAPGKVRELVAVMTGGGSTNYADSVKGRFTISRDNAKNTVYLQMNSLKPEDTAVYYCAARRAWGTKYHGYDYWGQGTQVTVSS”, the “polyreactivity (PSR sort gate)” value is “low polyreactivity”.

“QVQLVESGGGLVQAGGSLRLICAASGRIFDYYGMGWYRQAPGKETELVATIRRGGSTYYADSVKGRFTISRDNAMNTVYLQMNSLKPEDTAVYYCAAPGYSWYTYRRYDYWGQGTQVTVSS”: the “polyreactivity (PSR sort gate)” value is “high polyreactivity”.

Turning to “QVQLVESGGGLVQAGGSLRLSCAASGSIFRPYAMGWYRQAPGKERELVAGISLRGGSTSYADSVKGRFTISRDNAKNTVYLQMNSLKPEDTAVYYCAASYWWKGDSTYGYWGQGTQVTVSS”, the “polyreactivity (PSR sort gate)” value is “high polyreactivity”.

Consider “QVQLQESGGGLVQAGGSLRLGCAASGNISDAGYMGWYRQAPGKEREFVAAIAAGSNTNYADSVKGRFTISRDNAINTVYLQMNSLKPEVTAVFYCAVASYARVQYEYWGQGTQVTVNS”, for which the “polyreactivity (PSR sort gate)” value is recorded as “low polyreactivity”.

For “QVQLVESGGGLVQAGGSLRLSCAASGSTFILYAMGWYRQAPGKERELVAAISSDGSTYYADSVKGRFTISRDNAKNTVYLQMNSLKPEDTAVYYCAAYGYDADTGYDYWGLGTQVTVSS”, the “polyreactivity (PSR sort gate)” value is on record as “low polyreactivity”.

Regarding “QVQLVESGGGLVQAGGSLRLSCAASGRIFSIYGMGWYRQAPGKERELVAVISGSVGITYYADSVKGRFTISRDNAKNTVYLQMNSLKPEDTAVYYCNAKFRRRKYDYWGQGTQVTVSS”, the “polyreactivity (PSR sort gate)” value is “high polyreactivity”.

“QVQLVESGGGLVQAGGSLRLSCASSGRIFQFYAMGWYRQEPGKERELVASISWSGGRTYYADSVKGRFTISRDNAKNTVYLQMNSLNPEDTAVYYCAADYYDYYYWGQGTQVTVSS”: the “polyreactivity (PSR sort gate)” value is listed as “high polyreactivity”.

As to “QVQLVESGGGLVQAGGSLRLSCAASGRNFYSYSMGWYRQEPGKERELVATITSNDGGTDYADSVKGRFTISRDNAKNTVYLQMNSLKPEDTAVYYCNAEDVLPEVGNRYNYWGQGTQVTVSS”, the “polyreactivity (PSR sort gate)” value is “low polyreactivity”.

As to “QVQLVESGGGLVQAGGSLRLSCAASGRTFGGNVRVWYRQAPGKERELVAAISYSGRSTHYAESVKGRFTISRDNAKNTVILQMNSLKPEDTAVYYCNKPFPYYPDGPNGYDYWGQGTKVTVSS”, the “polyreactivity (PSR sort gate)” value was “low polyreactivity”.

As for “QVQLVESGGGLVQAGGSLRLSCAASGRIFTTNAMGWYRQAPGKERELVAAITYSGGTTYYADSVKGRFTISRDNAKNTVYLQLNSLNPEDTAVYYCAADVKFSTPYDYWGQGSQVTVSS”, the “polyreactivity (PSR sort gate)” value was “low polyreactivity”.

Regarding “QVQLIESGGGLVQAGGSLRLSCAASGIIFYDYAMGWYRQAPGKERELVATITSGGSTNYADSVKGRFTISRDNAKNTVYLQMNSLKPEDTAVYYCAAGRGLILGGVYGYDYWGQGTQVTVSS”, the “polyreactivity (PSR sort gate)” value was “low polyreactivity”.

Regarding “QVQLVESGGGLVQAGGSLRLSCAASGSTFYRNTMGWYRQAPGKERELVAAIRRSGSSTYYADSVKGRFTISRDIAKNTVYLQMNSLKREDTAVYYCAKEGLSYRYYYWGQGTQVTVSS”, the “polyreactivity (PSR sort gate)” value is “high polyreactivity”.

Turning to “QVQLVESGGGLVQEGGSLRLSCAASGFIFYRYTKGWYRQAPGKERELVAGISSRGTRTYYADSVKGRFTISRDNAKNTVYLQMNSLKPEDNAVYYCAKVDGSKRYNYWGQGTQVTVSS”, the “polyreactivity (PSR sort gate)” value was “high polyreactivity”.

In the case of “QVQLVESGGGLVQAGGSLRLSCAASGSTFAAKAMGWYRHAPGKERELVAAITSSGGSTYYADSVKGRFTISRDNAKNTVYLQMNSLKPEDTAVYYCNKDNERYVRIYDSWGQGTQVTVAS”, the “polyreactivity (PSR sort gate)” value was “low polyreactivity”.

In the case of “QVQLVESGGGLVQAGGSLRLSCAASGRTFVSHAMGWYRQAPGKERELVAAITNGGRTYYADSVKGRFTISRDNAKNTVYLQMNSLKPEDTAVYYCAAYVPTFKDRSRWYGRKYDYWGQGTQVTVSS”, the “polyreactivity (PSR sort gate)” value is recorded as “low polyreactivity”.
